Measured values as given in the supplement of paper PMC7877785.
± gives the uncertainty stated by the source.

Experiment: self-splicing fitness, log relative to wild type (ln ratio); higher = more splicing; Tetrahymena group I intron in knt gene, E. coli kanamycin selection, DiMSum; sequences stand for … in CUCUCU…GGAGGGAAAAGUUAUCAGGCAUGCACCUGGUAGCUAGUCUUUAAACCAAUAGAUUGCAUCGGUUUAAAAGGCAAGACCGUCAAAUUGCGGGAAAGGGGUCAACAGCCGUUCAGUACCAAGUCUCAGGGGAAACUUUGAGAUGGCCUUGCAAAGGGUAUGGUAAUAAGCUGACGGACAUGGUCCUAACCACGCAGCCAAGUCCUAAGUCAACAGAUCUUCUGUUGAUAUGGAUGCAGUUCACAGACUAAAUGUCGGUCGGGGAAGAUGUAUUCUUCUCAUAAGAUAUAGUCGGACCUCUCCUUAAUGGGAGCUAGCGGAUGAAGUGAUGCAACACUGGAGCCGCUGGGAACUAAUUUGUAUGCGAAAGUAUAUUGAUUAGUUUUGGAGUACUCGUGGUCG
In short: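 Library with all eight P1ex-region intron nucleotides randomised, intron inside the knt kanamycin-resistance gene on pET-22b(+), in E. coli BL21(DE3). Cells grew overnight at 37°C or 30°C on LB agar with or without 25 μg/mL kanamycin (plus 100 μg/mL carbenicillin, 50 μM IPTG, 0.2% rhamnose), in six replicate transformations. Pooled colonies were amplicon-sequenced on Illumina HiSeq 2500. DiMSum fitness is the error-weighted combination of wild-type-normalised replicate fold changes, kanamycin versus none.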

Row | Sequence | self-splicing fitness (ln) (30 °C) | self-splicing fitness (ln) (37 °C)
1 | CAUGAGCAAUAUUACGGUGU | -4.27 ± 0.28 | -2.54 ± 0.23
2 | GGACAGCAAUAUUACGAUAC | -0.672 ± 0.084 | -0.478 ± 0.098
3 | AGGAAGCAAUAUUACGCGGG | -1.85 ± 0.18 | -1.67 ± 0.14
4 | UCGGAGCAAUAUUACGUGAU | – | -3.24 ± 0.47
5 | UCUUAGCAAUAUUACGAAGC | -2.94 ± 0.21 | -2.05 ± 0.17
6 | GGUGAGCAAUAUUACGUCAU | -3.97 ± 0.19 | -2.76 ± 0.31
7 | CCCAAGCAAUAUUACGUCUG | -3.87 ± 0.19 | -2.18 ± 0.21
8 | AGGUAGCAAUAUUACGGAUA | -2.53 ± 0.025 | -1.6 ± 0.036
9 | ACUCAGCAAUAUUACGCUUA | -1.14 ± 0.14 | -0.0124 ± 0.12
10 | CACUAGCAAUAUUACGGUAG | -1.99 ± 0.1 | -0.969 ± 0.094
11 | CUUCAGCAAUAUUACGGUGG | -2.39 ± 0.12 | -1.18 ± 0.15
12 | UGCAAGCAAUAUUACGCGGC | -2.85 ± 0.17 | -2.3 ± 0.2
13 | GUCGAGCAAUAUUACGGCUA | -1.78 ± 0.21 | -1.47 ± 0.18
14 | GGGGAGCAAUAUUACGUCCA | -0.767 ± 0.12 | -0.145 ± 0.22
15 | UGACAGCAAUAUUACGCGAG | -2.36 ± 0.11 | -2.06 ± 0.077
16 | AAUGAGCAAUAUUACGCAAC | -2.46 ± 0.22 | -2.51 ± 0.44
17 | CCCUAGCAAUAUUACGGUAU | -3.5 ± 0.14 | -2.13 ± 0.14
18 | UACAAGCAAUAUUACGGAAG | -4.3 ± 0.46 | -2.46 ± 0.34
19 | GGCAAGCAAUAUUACGAGCC | -2.21 ± 0.43 | -1.52 ± 0.44
20 | GACGAGCAAUAUUACGCCGU | -2.58 ± 0.45 | –
21 | GACAAGCAAUAUUACGAAUA | -2.03 ± 0.12 | -1.17 ± 0.099
22 | GUAGAGCAAUAUUACGCACU | -1.24 ± 0.25 | 0.332 ± 0.23
23 | CUCUAGCAAUAUUACGUGCG | -2.61 ± 0.22 | -3.7 ± 0.3
24 | CAAAAGCAAUAUUACGCACA | -1.75 ± 0.1 | -0.746 ± 0.11
25 | CGCCAGCAAUAUUACGAUCG | -0.715 ± 0.063 | -0.476 ± 0.092
26 | UGGAAGCAAUAUUACGUCCU | -0.91 ± 0.2 | -0.584 ± 0.21

Row | Sequence | self-splicing fitness (ln) (30 °C) | self-splicing fitness (ln) (37 °C)
27 | CGUGAGCAAUAUUACGGUCA | -3.84 ± 0.25 | -2.12 ± 0.16
28 | AUUCAGCAAUAUUACGGAGU | -4.52 ± 0.34 | -2.3 ± 0.23
29 | GGGGAGCAAUAUUACGCUAA | – | 0.376 ± 0.38
30 | AAUGAGCAAUAUUACGAGGU | -4.31 ± 0.29 | -2.49 ± 0.17
31 | UUGGAGCAAUAUUACGUAUG | -3.25 ± 0.36 | -1.36 ± 0.37
32 | UCCGAGCAAUAUUACGGGAU | -3.44 ± 0.33 | –
33 | AGUUAGCAAUAUUACGGGAU | -3.18 ± 0.26 | -1.46 ± 0.22
34 | ACCUAGCAAUAUUACGGAGA | -1.83 ± 0.17 | -2.45 ± 0.2
35 | CCGCAGCAAUAUUACGGGCG | -2.13 ± 0.11 | -1.95 ± 0.12
36 | AGUAAGCAAUAUUACGAGAA | – | -1.21 ± 0.41
37 | GUAGAGCAAUAUUACGGUGG | -3.39 ± 0.45 | -0.894 ± 0.23
38 | UGUAAGCAAUAUUACGACAA | -0.378 ± 0.16 | -0.666 ± 0.14
39 | UACUAGCAAUAUUACGACGG | -0.517 ± 0.12 | -0.301 ± 0.15
40 | UUCCAGCAAUAUUACGCCUC | -1.84 ± 0.21 | -0.711 ± 0.29
41 | GCUUAGCAAUAUUACGGCCU | -1.05 ± 0.18 | -1.57 ± 0.25
42 | AUGAAGCAAUAUUACGUAGA | -2.86 ± 0.18 | -1.84 ± 0.19
43 | UACCAGCAAUAUUACGCGUU | -1.64 ± 0.07 | -0.917 ± 0.086
44 | GGGCAGCAAUAUUACGGAAG | -3.03 ± 0.23 | -1.02 ± 0.17
45 | GGCGAGCAAUAUUACGACCG | -0.74 ± 0.28 | -0.371 ± 0.26
46 | UAUAAGCAAUAUUACGCCCA | -0.492 ± 0.13 | -0.495 ± 0.2
47 | GGGGAGCAAUAUUACGUCAA | -2.48 ± 0.3 | -3.16 ± 0.35
48 | AAGAAGCAAUAUUACGGCGG | -0.903 ± 0.1 | -0.664 ± 0.12
49 | UGCCAGCAAUAUUACGGUAU | -3.55 ± 0.16 | -2 ± 0.19
50 | AGUUAGCAAUAUUACGUACA | -1.06 ± 0.09 | -0.266 ± 0.12
51 | GUGCAGCAAUAUUACGAAAU | -1.31 ± 0.084 | -0.452 ± 0.097
52 | UCUAAGCAAUAUUACGGCUC | – | -1.67 ± 0.35

Row | Sequence | self-splicing fitness (ln) (30 °C) | self-splicing fitness (ln) (37 °C)
53 | AUGUAGCAAUAUUACGCUAG | -1.61 ± 0.21 | -0.5 ± 0.22
54 | CCCUAGCAAUAUUACGGGAC | -2.48 ± 0.18 | -1.87 ± 0.23
55 | AUCUAGCAAUAUUACGGCAG | -2.04 ± 0.17 | -0.157 ± 0.16
56 | CGCAAGCAAUAUUACGAGGA | -3.23 ± 0.24 | -2.81 ± 0.29
57 | CUGUAGCAAUAUUACGUCCA | – | -2.89 ± 0.48
58 | AUGGAGCAAUAUUACGGACG | -2.44 ± 0.32 | -0.988 ± 0.3
59 | UGCAAGCAAUAUUACGCUGA | -2.78 ± 0.12 | -0.102 ± 0.09
60 | ACUCAGCAAUAUUACGGCCU | -0.0739 ± 0.079 | -0.0329 ± 0.099
61 | GCGGAGCAAUAUUACGGGAG | -2.36 ± 0.42 | -0.916 ± 0.48
62 | UGUAAGCAAUAUUACGCCUU | -1.69 ± 0.35 | -1.5 ± 0.43
63 | UUUGAGCAAUAUUACGAUAC | -3.55 ± 0.48 | –
64 | UUAUAGCAAUAUUACGAUAC | – | -1.53 ± 0.27
65 | UUUCAGCAAUAUUACGACUG | -2.89 ± 0.2 | -1.53 ± 0.18
66 | AGUUAGCAAUAUUACGUGAG | -1.53 ± 0.12 | -1.86 ± 0.14
67 | CCGUAGCAAUAUUACGGGGA | -3.45 ± 0.25 | -3.11 ± 0.25
68 | AACCAGCAAUAUUACGCCAG | -2.46 ± 0.14 | -1.72 ± 0.18
69 | UCGUAGCAAUAUUACGUUUC | -3.71 ± 0.24 | -2.31 ± 0.21
70 | AGUUAGCAAUAUUACGAAGU | -2.91 ± 0.17 | -1.47 ± 0.15
71 | GGUAAGCAAUAUUACGUAGG | -2.78 ± 0.19 | -3.5 ± 0.28
72 | GCGGAGCAAUAUUACGGAUA | -2.53 ± 0.33 | -1.26 ± 0.25
73 | AUGAAGCAAUAUUACGUAAU | -1.57 ± 0.075 | -0.42 ± 0.094
74 | UCGAAGCAAUAUUACGGACC | -3.46 ± 0.33 | -2.02 ± 0.34
75 | GCAAAGCAAUAUUACGAUGU | -2.89 ± 0.15 | -1.93 ± 0.17
76 | ACGAAGCAAUAUUACGCCGU | -3.86 ± 0.37 | -1.57 ± 0.23
77 | UUGCAGCAAUAUUACGAACU | -2.25 ± 0.23 | -2.11 ± 0.22
78 | UACAAGCAAUAUUACGCCUA | 0.14 ± 0.067 | -0.0341 ± 0.071
